# Reference: PMC8844825 (iScience, 2022)
# T1: myc-WT CARD11-FLAGx2 (murine, UniProt Q8CIS0 1-1159)
# T1 sequence (looked up): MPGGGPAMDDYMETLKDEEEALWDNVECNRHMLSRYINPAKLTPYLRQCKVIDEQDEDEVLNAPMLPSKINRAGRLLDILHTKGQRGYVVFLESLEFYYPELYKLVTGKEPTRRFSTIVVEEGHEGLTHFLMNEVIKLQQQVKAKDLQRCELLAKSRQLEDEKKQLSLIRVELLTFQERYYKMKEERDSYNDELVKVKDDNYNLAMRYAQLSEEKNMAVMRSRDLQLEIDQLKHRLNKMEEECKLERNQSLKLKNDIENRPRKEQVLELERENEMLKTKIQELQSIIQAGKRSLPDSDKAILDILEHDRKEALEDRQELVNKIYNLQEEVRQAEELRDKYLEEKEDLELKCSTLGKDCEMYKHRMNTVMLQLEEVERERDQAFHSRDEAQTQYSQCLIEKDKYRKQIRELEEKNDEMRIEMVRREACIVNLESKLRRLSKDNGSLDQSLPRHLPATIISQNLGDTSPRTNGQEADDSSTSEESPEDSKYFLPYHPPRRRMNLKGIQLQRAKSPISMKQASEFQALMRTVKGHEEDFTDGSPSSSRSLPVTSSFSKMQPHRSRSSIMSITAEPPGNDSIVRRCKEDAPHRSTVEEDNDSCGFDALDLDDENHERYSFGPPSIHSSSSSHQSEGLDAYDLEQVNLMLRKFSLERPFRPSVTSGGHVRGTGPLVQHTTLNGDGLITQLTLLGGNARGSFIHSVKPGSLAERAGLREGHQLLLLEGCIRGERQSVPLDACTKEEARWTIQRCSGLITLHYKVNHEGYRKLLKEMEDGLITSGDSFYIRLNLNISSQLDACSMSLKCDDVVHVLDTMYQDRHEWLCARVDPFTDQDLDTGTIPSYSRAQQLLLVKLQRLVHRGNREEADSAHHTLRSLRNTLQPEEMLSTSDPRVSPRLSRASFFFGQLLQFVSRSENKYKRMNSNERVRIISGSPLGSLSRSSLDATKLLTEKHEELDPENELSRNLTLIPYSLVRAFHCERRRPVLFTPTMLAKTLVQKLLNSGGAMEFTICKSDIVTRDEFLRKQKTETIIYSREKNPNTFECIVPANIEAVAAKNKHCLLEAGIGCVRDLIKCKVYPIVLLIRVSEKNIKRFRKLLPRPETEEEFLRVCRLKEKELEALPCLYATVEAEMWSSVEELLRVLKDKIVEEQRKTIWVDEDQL
# Molecular target: T1, myc-WT CARD11-FLAGx2
# Test: co-IP
row,Binder,"relative inducible binding (bound/input, normalised to WT)"
1,"HOIP (endogenous, Jurkat T cells) (natural protein, human (endogenous in Jurkat), UniProt Q96EP0 1-1072, looked up) MPGEEEERAFLVAREELASALRRDSGQAFSLEQLRPLLASSLPLAARYLQLDAARLVRCNAHGEPRNYLNTLSTALNILEKYGRNLLSPQRPRYWRGVKFNNPVFRSTVDAVQGGRDVLRLYGYTEEQPDGLSFPEGQEEPDEHQVATVTLEVLLLRTELSLLLQNTHPRQQALEQLLEDKVEDDMLQLSEFDPLLREIAPGPLTTPSVPGSTPGPCFLCGSAPGTLHCPSCKQALCPACDHLFHGHPSRAHHLRQTLPGVLQGTHLSPSLPASAQPRPQSTSLLALGDSSLSSPNPASAHLPWHCAACAMLNEPWAVLCVACDRPRGCKGLGLGTEGPQGTGGLEPDLARGRWACQSCTFENEAAAVLCSICERPRLAQPPSLVVDSRDAGICLQPLQQGDALLASAQSQVWYCIHCTFCNSSPGWVCVMCNRTSSPIPAQHAPRPYASSLEKGPPKPGPPRRLSAPLPSSCGDPEKQRQDKMREEGLQLVSMIREGEAAGACPEEIFSALQYSGTEVPLQWLRSELPYVLEMVAELAGQQDPGLGAFSCQEARRAWLDRHGNLDEAVEECVRTRRRKVQELQSLGFGPEEGSLQALFQHGGDVSRALTELQRQRLEPFRQRLWDSGPEPTPSWDGPDKQSLVRRLLAVYALPSWGRAELALSLLQETPRNYELGDVVEAVRHSQDRAFLRRLLAQECAVCGWALPHNRMQALTSCECTICPDCFRQHFTIALKEKHITDMVCPACGRPDLTDDTQLLSYFSTLDIQLRESLEPDAYALFHKKLTEGVLMRDPKFLWCAQCSFGFIYEREQLEATCPQCHQTFCVRCKRQWEEQHRGRSCEDFQNWKRMNDPEYQAQGLAMYLQENGIDCPKCKFSYALARGGCMHFHCTQCRHQFCSGCYNAFYAKNKCPEPNCRVKKSLHGHHPRDCLFYLRDWTALRLQKLLQDNNVMFNTEPPAGARAVPGGGCRVIEQKEVPNGLRDEACGKETPAGYAGLCQAHYKEYLVSLINAHSLDPATLYEVEELETATERYLHVRPQPLAGEDPPAYQARLLQKLTEEVPLGQSIPRRRK",1 relative to WT
2,"Bcl10 (endogenous, Jurkat T cells) (natural protein, human (endogenous in Jurkat), UniProt O95999 1-233, looked up) MEPTAPSLTEEDLTEVKKDALENLRVYLCEKIIAERHFDHLRAKKILSREDTEEISCRTSSRKRAGKLLDYLQENPKGLDTLVESIRREKTQNFLIQKITDEVLKLRNIKLEHLKGLKCSSCEPFPDGATNNLSRSNSDESNFSEKLRASTVMYHPEGESSTTPFFSTNSSLNLPVLEVGRTENTIFSSTTLPRPGDPGAPPLPPDLQLEEEGTCANSSEMFLPLRSRTVSRQ",1 relative to WT
